In IntAct's records for PubMed 21423214:

B1: Tyrosine-protein kinase JAK2 (Mus musculus), Q62120 (parent)
chain: MGMACLTMTEMEATSTSPVHQNGDIPGSANSVKQIEPVLQVYLYHSLGQAEGEYLKFPSGEYVAEEICVAASKACGITPVYHNMFALMSETERIWYPPNHVFHIDESTRHDILYRIRFYFPHWYCSGSSRTYRYGVSRGAEAPLLDDFVMSYLFAQWRHDFVHGWIKVPVTHETQEECLGMAVLDMMRIAKEKDQTPLAVYNSVSYKTFLPKCVRAKIQDYHILTRKRIRYRFRRFIQQFSQCKATARNLKLKYLINLETLQSAFYTEQFEVKESARGPSGEEIFATIIITGNGGIQWSRGKHKESETLTEQDVQLYCDFPDIIDVSIKQANQECSNESRIVTVHKQDGKVLEIELSSLKEALSFVSLIDGYYRLTADAHHYLCKEVAPPAVLENIHSNCHGPISMDFAISKLKKAGNQTGLYVLRCSPKDFNKYFLTFAVERENVIEYKHCLITKNENGEYNLSGTKRNFSNLKDLLNCYQMETVRSDSIIFQFTKCCPPKPKDKSNLLVFRTNGISDVQISPTLQRHNNVNQMVFHKIRNEDLIFNESLGQGTFTKIFKGVRREVGDYGQLHKTEVLLKVLDKAHRNYSESFFEAASMMSQLSHKHLVLNYGVCVCGEENILVQEFVKFGSLDTYLKKNKNSINILWKLGVAKQLAWAMHFLEEKSLIHGNVCAKNILLIREEDRRTGNPPFIKLSDPGISITVLPKDILQERIPWVPPECIENPKNLNLATDKWSFGTTLWEICSGGDKPLSALDSQRKLQFYEDKHQLPAPKWTELANLINNCMDYEPDFRPAFRAVIRDLNSLFTPDYELLTENDMLPNMRIGALGFSGAFEDRDPTQFEERHLKFLQQLGKGNFGSVEMCRYDPLQDNTGEVVAVKKLQHSTEEHLRDFEREIEILKSLQHDNIVKYKGVCYSAGRRNLRLIMEYLPYGSLRDYLQKHKERIDHKKLLQYTSQICKGMEYLGTKRYIHRDLATRNILVENENRVKIGDFGLTKVLPQDKEYYKVKEPGESPIFWYAPESLTESKFSVASDVWSFGVVLYELFTYIEKSKSPPVEFMRMIGNDKQGQMIVFHLIELLKSNGRLPRPEGCPDEIYVIMTECWNNNVSQRPSFRDLSLRVDQIRDSIAA

Variants of: B1
Settings: with cdn1b_human CDKN1B

| effect of a mutation on the interaction | Variant |
| --- | --- |
| increasing interaction strength | V617F |
